In IntAct's records for PubMed 23977161:

B1: Prelamin-A/C (Homo sapiens), P02545 (parent)
chain: METPSQRRATRSGAQASSTPLSPTRITRLQEKEDLQELNDRLAVYIDRVRSLETENAGLRLRITESEEVVSREVSGIKAAYEAELGDARKTLDSVAKERARLQLELSKVREEFKELKARNTKKEGDLIAAQARLKDLEALLNSKEAALSTALSEKRTLEGELHDLRGQVAKLEAALGEAKKQLQDEMLRRVDAENRLQTMKEELDFQKNIYSEELRETKRRHETRLVEIDNGKQREFESRLADALQELRAQHEDQVEQYKKELEKTYSAKLDNARQSAERNSNLVGAAHEELQQSRIRIDSLSAQLSQLQKQLAAKEAKLRDLEDSLARERDTSRRLLAEKEREMAEMRARMQQQLDEYQELLDIKLALDMEIHAYRKLLEGEEERLRLSPSPTSQRSRGRASSHSSQTQGGGSVTKKRKLESTESRSSFSQHARTSGRVAVEEVDEEGKFVRLRNKSNEDQSMGNWQIKRQNGDDPLLTYRFPPKFTLKAGQVVTIWAAGAGATHSPPTDLVWKAQNTWGCGNSLRTALINSTGEEVAMRKLVRSVTVVEDDEDEDGDDLLHHHHGSHCSSSGDPAEYNLRSRTVLCGTCGQPADKASASGSGAQVGGPISSGSSASSVTVTRSYRSVGGSGGGSFGDNLVTRSYLLGNSSPRTQSPQNCSIM

Legend:
SYNE2, Q8WXH0-1 [1] = variants of: B1; details: with SYNE2, Q8WXH0-1
SYNE2, Q8WXH0-1 [2] = variants of: B1; details: with SYNE2, Q8WXH0-1; remark: listed apart in the source

Variant	effect of a mutation on the interaction (SYNE2, Q8WXH0-1 [1])	effect of a mutation on the interaction (SYNE2, Q8WXH0-1 [2])
R419C	decreasing interaction strength	with no effect
L421P	decreasing interaction strength	with no effect
R427G	decreasing interaction strength	with no effect
V415I	increasing interaction strength	with no effect
R401C	increasing interaction strength	with no effect
G413C	decreasing interaction strength	with no effect
G411D	increasing interaction strength	with no effect
